Source: the supplement of paper PMC7877785
± gives the uncertainty stated by the source.

Test: self-splicing fitness, log relative to wild type (ln ratio); higher = more splicing; Tetrahymena group I intron in knt gene, E. coli kanamycin selection, DiMSum; sequences stand for … in CUCUCU…GGAGGGAAAAGUUAUCAGGCAUGCACCUGGUAGCUAGUCUUUAAACCAAUAGAUUGCAUCGGUUUAAAAGGCAAGACCGUCAAAUUGCGGGAAAGGGGUCAACAGCCGUUCAGUACCAAGUCUCAGGGGAAACUUUGAGAUGGCCUUGCAAAGGGUAUGGUAAUAAGCUGACGGACAUGGUCCUAACCACGCAGCCAAGUCCUAAGUCAACAGAUCUUCUGUUGAUAUGGAUGCAGUUCACAGACUAAAUGUCGGUCGGGGAAGAUGUAUUCUUCUCAUAAGAUAUAGUCGGACCUCUCCUUAAUGGGAGCUAGCGGAUGAAGUGAUGCAACACUGGAGCCGCUGGGAACUAAUUUGUAUGCGAAAGUAUAUUGAUUAGUUUUGGAGUACUCGUGGUCG
Method in brief: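 A randomised library covering all eight P1ex-region intron nucleotides was built with the intron in the knt kanamycin-resistance gene on pET-22b(+) and held in E. coli BL21(DE3). Cells were grown overnight at 37°C or 30°C on LB agar, with or without 25 μg/mL kanamycin, plus 100 μg/mL carbenicillin, 50 μM IPTG and 0.2% rhamnose, and pooled colonies were amplicon-sequenced on an Illumina HiSeq 2500. DiMSum fitness is the error-weighted combination of wild-type-normalised replicate fold changes, kanamycin versus none.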

Sequence	self-splicing fitness (ln) (30 °C)	self-splicing fitness (ln) (37 °C)
UAAAAGCAAUAUUACGAUUG	-1.18 ± 0.087	-0.639 ± 0.11
UAAAAGCAAUAUUACGCAAU	-3.58 ± 0.17	-1.6 ± 0.13
UAAAAGCAAUAUUACGCACU	-0.274 ± 0.056	0.0996 ± 0.068
UAAAAGCAAUAUUACGCCGC	–	-1.17 ± 0.23
UAAAAGCAAUAUUACGCCUU	-1.53 ± 0.12	-0.42 ± 0.12
UAAAAGCAAUAUUACGCGUA	-1.12 ± 0.11	-0.0821 ± 0.096
UAAAAGCAAUAUUACGCGUC	-3.53 ± 0.24	-2.7 ± 0.21
UAAAAGCAAUAUUACGGAUA	-1.35 ± 0.12	0.0185 ± 0.12
UAAAAGCAAUAUUACGGCUC	-1.05 ± 0.12	0.168 ± 0.17
UAAAAGCAAUAUUACGGGCA	-0.521 ± 0.094	0.0848 ± 0.1
UAAAAGCAAUAUUACGGGCC	-1.68 ± 0.2	-2.04 ± 0.38
UAAAAGCAAUAUUACGGGGC	-3.59 ± 0.23	-2.33 ± 0.25
UAAAAGCAAUAUUACGGGGU	-3.96 ± 0.17	-3.21 ± 0.2
UAAAAGCAAUAUUACGGUCC	-2.84 ± 0.17	-2.03 ± 0.21
UAAAAGCAAUAUUACGUAAC	-3.84 ± 0.33	-2.02 ± 0.3
UAAAAGCAAUAUUACGUAGU	-3.36 ± 0.12	-2.83 ± 0.14
UAAAAGCAAUAUUACGUAUA	-1.82 ± 0.12	-0.643 ± 0.12
UAAAAGCAAUAUUACGUGUC	-3.12 ± 0.25	-2.5 ± 0.2
UAAAAGCAAUAUUACGUUAU	-3.59 ± 0.16	-2.41 ± 0.13
UAACAGCAAUAUUACGAACA	-0.546 ± 0.072	0.297 ± 0.087
UAACAGCAAUAUUACGAAGG	-1.76 ± 0.083	-1.78 ± 0.12
UAACAGCAAUAUUACGACAA	-0.503 ± 0.094	0.136 ± 0.096
UAACAGCAAUAUUACGACCG	-0.596 ± 0.09	-0.323 ± 0.11
UAACAGCAAUAUUACGAGCG	-0.617 ± 0.055	0.286 ± 0.069
UAACAGCAAUAUUACGAUUA	-0.131 ± 0.047	-0.103 ± 0.058

Sequence	self-splicing fitness (ln) (30 °C)	self-splicing fitness (ln) (37 °C)
UAACAGCAAUAUUACGCAAG	-2.08 ± 0.078	-2.23 ± 0.074
UAACAGCAAUAUUACGCAGC	-4.12 ± 0.37	-3.15 ± 0.4
UAACAGCAAUAUUACGCCUC	-2.18 ± 0.35	-2.06 ± 0.33
UAACAGCAAUAUUACGCGUU	-3.66 ± 0.1	-3.01 ± 0.13
UAACAGCAAUAUUACGGACA	-0.353 ± 0.085	-0.527 ± 0.1
UAACAGCAAUAUUACGGACG	-0.143 ± 0.055	0.21 ± 0.079
UAACAGCAAUAUUACGGCAA	-0.777 ± 0.089	0.203 ± 0.096
UAACAGCAAUAUUACGGCUG	-2.55 ± 0.095	-0.978 ± 0.12
UAACAGCAAUAUUACGGUAG	-1.7 ± 0.07	-0.0293 ± 0.076
UAACAGCAAUAUUACGUACU	-1.07 ± 0.063	-0.454 ± 0.068
UAACAGCAAUAUUACGUCAA	-2.17 ± 0.15	-0.769 ± 0.1
UAACAGCAAUAUUACGUCUG	-0.467 ± 0.059	0.248 ± 0.077
UAACAGCAAUAUUACGUUAG	-2.24 ± 0.087	-0.961 ± 0.086
UAACAGCAAUAUUACGUUUU	-3.39 ± 0.12	-1.7 ± 0.099
UAAGAGCAAUAUUACGAACU	-2.49 ± 0.47	–
UAAGAGCAAUAUUACGACAA	-3.57 ± 0.43	-1.79 ± 0.29
UAAGAGCAAUAUUACGAGCG	-3.12 ± 0.35	-1.54 ± 0.26
UAAGAGCAAUAUUACGCAAU	-3.35 ± 0.31	-2.32 ± 0.27
UAAGAGCAAUAUUACGCACC	–	-1.93 ± 0.41
UAAGAGCAAUAUUACGCAGC	-3.16 ± 0.22	-3.49 ± 0.33
UAAGAGCAAUAUUACGCAGG	-4.39 ± 0.36	-2.2 ± 0.2
UAAGAGCAAUAUUACGCAUA	-1.8 ± 0.39	-1.59 ± 0.3
UAAGAGCAAUAUUACGCCUG	-2.17 ± 0.15	-0.85 ± 0.2
UAAGAGCAAUAUUACGCGAG	-3.96 ± 0.21	-1.85 ± 0.17
UAAGAGCAAUAUUACGCGGA	-2.95 ± 0.28	-2.35 ± 0.33

Sequence	self-splicing fitness (ln) (30 °C)	self-splicing fitness (ln) (37 °C)
UAAGAGCAAUAUUACGGCAG	-3.03 ± 0.18	-1.38 ± 0.17
UAAGAGCAAUAUUACGGCCG	-1.79 ± 0.14	-0.743 ± 0.2
UAAGAGCAAUAUUACGGCGU	-1.79 ± 0.13	-2.39 ± 0.31
UAAGAGCAAUAUUACGGGAC	-2.98 ± 0.38	-1.86 ± 0.33
UAAGAGCAAUAUUACGGUAG	–	-2.57 ± 0.35
UAAGAGCAAUAUUACGGUCU	-3.26 ± 0.4	-2.04 ± 0.24
UAAGAGCAAUAUUACGUAGG	-3.24 ± 0.33	-2.56 ± 0.3
UAAGAGCAAUAUUACGUCCU	–	-2.49 ± 0.45
UAAGAGCAAUAUUACGUCGG	-3.8 ± 0.29	-2.25 ± 0.27
UAAGAGCAAUAUUACGUGAU	-4.21 ± 0.34	-2.43 ± 0.35
UAAGAGCAAUAUUACGUGCG	-3.85 ± 0.42	-0.711 ± 0.27
UAAUAGCAAUAUUACGACAA	-2.23 ± 0.16	-1.01 ± 0.14
UAAUAGCAAUAUUACGACAU	-3.378 ± 0.025	-1.95 ± 0.036
UAAUAGCAAUAUUACGAGCA	-1.64 ± 0.16	-1.21 ± 0.16
UAAUAGCAAUAUUACGCAUC	-2.08 ± 0.49	–
UAAUAGCAAUAUUACGCAUG	-1.4 ± 0.085	0.553 ± 0.13
UAAUAGCAAUAUUACGCCCA	-1.36 ± 0.19	0.129 ± 0.26
UAAUAGCAAUAUUACGCCGG	-1.23 ± 0.17	-1.05 ± 0.33
UAAUAGCAAUAUUACGCCGU	-2.83 ± 0.38	-1.97 ± 0.43
UAAUAGCAAUAUUACGCUUA	-1.32 ± 0.25	-0.932 ± 0.15
UAAUAGCAAUAUUACGGCGC	-3.51 ± 0.35	-2.42 ± 0.38
UAAUAGCAAUAUUACGGCUC	-2.37 ± 0.23	-0.201 ± 0.23
UAAUAGCAAUAUUACGGGCC	-3.78 ± 0.44	-2.52 ± 0.48
UAAUAGCAAUAUUACGGUGU	-2.98 ± 0.21	-2.93 ± 0.3
UAAUAGCAAUAUUACGUCAG	-2.58 ± 0.25	-1.56 ± 0.2

Sequence	self-splicing fitness (ln) (30 °C)	self-splicing fitness (ln) (37 °C)
UAAUAGCAAUAUUACGUGCA	-1.36 ± 0.11	-1.34 ± 0.099
UAAUAGCAAUAUUACGUGGU	-4.96 ± 0.28	-2.75 ± 0.15
UAAUAGCAAUAUUACGUGUG	-1.6 ± 0.073	-0.917 ± 0.074
UACAAGCAAUAUUACGAACC	–	-0.357 ± 0.23
UACAAGCAAUAUUACGACAU	-1.474 ± 0.012	-0.59 ± 0.032
UACAAGCAAUAUUACGAGAC	-3.27 ± 0.43	-1.43 ± 0.23
UACAAGCAAUAUUACGCAGG	-2.78 ± 0.11	-1.7 ± 0.095
UACAAGCAAUAUUACGCAUC	-2.99 ± 0.16	-2.02 ± 0.18
UACAAGCAAUAUUACGCAUG	-2.07 ± 0.088	-0.74 ± 0.086
UACAAGCAAUAUUACGCCCG	0.87 ± 0.18	0.761 ± 0.23
UACAAGCAAUAUUACGCGCC	-1.66 ± 0.13	-0.798 ± 0.13
UACAAGCAAUAUUACGCUCG	-1.26 ± 0.088	0.16 ± 0.11
UACAAGCAAUAUUACGGCGU	-1.14 ± 0.11	-0.846 ± 0.098
UACAAGCAAUAUUACGGGAG	-3.1 ± 0.12	-1.49 ± 0.094
UACAAGCAAUAUUACGGGAU	-3.65 ± 0.17	-1.39 ± 0.11
UACAAGCAAUAUUACGGGCA	-0.0705 ± 0.063	0.152 ± 0.072
UACAAGCAAUAUUACGGGCU	-4.2 ± 0.34	-2.82 ± 0.18
UACAAGCAAUAUUACGGGUA	-1.13 ± 0.072	-0.839 ± 0.077
UACAAGCAAUAUUACGGGUU	-2.8 ± 0.091	-1.63 ± 0.097
UACAAGCAAUAUUACGGUAA	-2.12 ± 0.1	-1.15 ± 0.1
UACAAGCAAUAUUACGGUGC	-3.55 ± 0.26	-2.35 ± 0.21
UACAAGCAAUAUUACGGUUC	-3.49 ± 0.15	-1.73 ± 0.13
